We go through one substance from paper PMC7103410.

In the assay the target is M116, the C-terminal 116 amino acids of SARS-CoV membrane (M) protein (recombinant cytoplasmic region) (SARS-CoV). Description: SPR. Background: Surface plasmon resonance follows binding to a sensor surface in real time, without labels.

Take N peptide 101–115: the Kd (usually the concentration at which binding is half-saturated) was 730 nM.
